Source: publication doi:10.1101/2025.03.18.644018v1

What was measured:
[1] = substrate: O=C(O)C[C@H](O)C(=O)O; assay: purified protein; conditions: equimolar mixture, forward, saturating NAD, MnCl2, pH 6.5, 30°C
[2] = substrate: CC(=O)C(=O)O; assay: purified protein; assay type: biochemical, Glycine max; conditions: reverse reaction, NaHCO3, NADPH, MgCl2, pH 6.5, 30°C

B1: NAD-ME1 + NAD-ME2.3 (Glycine max) (protein)
chain 1: PSIVHKRSLDILHDPWFNKGTAFSMTERDRLDLRGLLPPNVMSPDLQIERFMVDLKRLEVQARDGPSDPNALAKWRILNRLHDRNETMYYKVLIAKIEEYAPIVYTPTVGLVCQNYSGLFRRPRGMYFSAEDRGEMMSMVYNWPAEQVDMIVVTDGSRILGLGDLGVQGIGIAIGKLDLYVAAAGINPQRVLPVMIDVGTNNEKLLEDPLYLGLQQHRLDGDDYLAVVDEFMEAVFTRWPNVIVQFEDFQSKWAFKLLQRYRNTYRMFNDDVQGTAGVAIAGLLGAVRAQGRPLIDFPKQKIVVAGAGSAGIGVLNAARKTMARMLGNNEVAFESAKSQFWVVDAQGLITEGRENIDPDALPFARNLKEMDRQGLREGASLVEVVKQVKPDVLLGLSAVGGLFSKEVLEALKGSTSTRPAIFAMSNPTKNAECTAEEAFSILGDNIIFASGSPFSNVDLGNGHIGHCNQGNNMYLFPGIGLGTLLSGARIVSDGMLQAAAERLATYMSEEEVLKGIIFPSTSRIRDITKQVATAVIKEAVEEDLAEGYHGMDARELQKLSEDEIAEYVQNNMWSPEYPTLVYKKE
chain 2: CIVHKRGADILHDPWFNKDTGFPLTERDRLGLRGLLPPRVISFEQQYDRFMNSFRSLENNTQGQPDKVVSLAKWRILNRLHDRNETLYYRVLIDNIKEFAPIIYTPTVGLVCQNYSGLFRRPRGMYFSAKDKGEMMSMIYNWPAHEVDMIVLTDGSRILGLGDLGVQGIGIPIGKLDVYVAAAGINPQRILPVMLDVGTNNQKLLEDRLYLGLRQPRLEGEEYLSIVDEFMEAVHARWPKAIVQFEDFQMKWAFETLKRYQKRFCMFNDDIQGTAGVALAGILGTVRAQGRPLTDFVNQKIVVVGAGSAGLGVLKMAIQTVAKISGCSELAAKSQFYLIDKDGLVTTERNSLDPAAAPFAKNPRDIEGLTEGASIIEVVKKIRPHVLLGLSGVGGIFNEEVLKAMRESVSTKPAIFAMSNPTMNAECTSIDAFKHAGENIVFASGSPFENVDLGNGKVGHVNQANNMYLFPGIGLGTLLSGAHLITDGMLQAASECLASYMAEEDILKGILYPSVDSIRDVTAEVGAAVLRAAVEEELAEGHGDVGPKELSHMSKDEAVEYVRSNMWYPVYSPLVHEK
K0.5 [1]: 0.2 ± 0.1 mM
kcat [1]: 338.3 ± 15.8 s⁻¹

B2: NAD-ME1 + NAD-ME2.4 (Glycine max) (protein)
chain 1: PSIVHKRSLDILHDPWFNKGTAFSMTERDRLDLRGLLPPNVMSPDLQIERFMVDLKRLEVQARDGPSDPNALAKWRILNRLHDRNETMYYKVLIAKIEEYAPIVYTPTVGLVCQNYSGLFRRPRGMYFSAEDRGEMMSMVYNWPAEQVDMIVVTDGSRILGLGDLGVQGIGIAIGKLDLYVAAAGINPQRVLPVMIDVGTNNEKLLEDPLYLGLQQHRLDGDDYLAVVDEFMEAVFTRWPNVIVQFEDFQSKWAFKLLQRYRNTYRMFNDDVQGTAGVAIAGLLGAVRAQGRPLIDFPKQKIVVAGAGSAGIGVLNAARKTMARMLGNNEVAFESAKSQFWVVDAQGLITEGRENIDPDALPFARNLKEMDRQGLREGASLVEVVKQVKPDVLLGLSAVGGLFSKEVLEALKGSTSTRPAIFAMSNPTKNAECTAEEAFSILGDNIIFASGSPFSNVDLGNGHIGHCNQGNNMYLFPGIGLGTLLSGARIVSDGMLQAAAERLATYMSEEEVLKGIIFPSTSRIRDITKQVATAVIKEAVEEDLAEGYHGMDARELQKLSEDEIAEYVQNNMWSPEYPTLVYKKE
chain 2: CIVHKRGADILHDPWFNKDTGFPLTERDRLGLRGLLPPRVISFEQQYDRFMNSFRSLENNTQGQPDKVVSLAKWRILNRLHDRNETLYYRVLIDNIKEFAPIIYTPTVGLVCQNYSGLFRRPRGMYFSAKDKGEMMSMIYNWPAHEVDMIVLTDGSRILGLGDLGVQGIGIPIGKLDVYVAAAGINPQRILPVMLDVGTNNQKLLEDRLYLGLRQPRLEGEEYLSIIDEFMEAVHARWPKAIVQFEDFQMKWAFETLKRYQKKFCMFNDDIQGTAGVALAGLLGTVRAQGRPLTDFVNQKIVVVGAGSAGLGVLKMAIQAVAKISGCSELAAKSQFYLIDKDGLVTTERNNLDPAAAPFAKNPRDIEGLTEGASIIEVVKKIRPHVLLGLSGVGGIFNEEVLKAMRESVSTKPAIFAMSNPTMNAECTAIDAFKHAGENMVFASGSPFENVDLGNGIVGHVNQANNMYLFPGIGLGTLLSGAHLITDGMLQAAAECLASYMAEEDILKGILYPSVDSIRDVTAEVGAAVLRAAVEEELAEGNGDVGPKELSHMSKDETVEYVRSNMWYPVYSPLVHEK
K0.5 [1]: 0.6 ± 0.2 mM
kcat [1]: 393.6 ± 63.8 s⁻¹

B3: NADP-ME1.1 (Glycine max) (protein)
chain: SMTPSSSSSSRSGDRNGSVVMETPLKELKKESTVADVDDNAISAGGPQDVYGEDRATEDHFVTPWSVSVASGYTLLRDPHFNKGLAFTEDERDAHYLRGLLPPSVIPQETQVKKMIQHVRQYQVPLQKYMAMMDLQERNERLFYKLLIDHVEELLPVVYTPTVGEACQKYGSIFMHPQGLYISLKEKGKIREVLRNWPEKNIQVIVVTDGERILGLGDLGCQGMGIPVGKLSLYTALGGVRPSACLPITIDVGTNNEKLLNDELYIGLKQRRATGQEYAELMHEFMTAVKQTYGEKVLIQFEDFANHNAFNLLEKYRSTHLVFNDDIQGTASVVLAGLVASLKLVGGNLADHRFLFLGAGEAGTGIAELIALETSKQTNAPLEEVRKNIWLVDSKGLIVSSRKDSLQHFKKPWAHEHEPVKNLLDAVNKIKPTVLIGTSGQGRTFTKEVIEAMASINKRPIILSLSNPTSQSECTAEEAYKWSQGRAIFASGSPFPPVEYEGKVFVPGQANNAYIFPGFGLGLIMSGTIRVHDDLLLAASEALAAQVSQENFDKGLIYPPFTNIRKISAHIAANVAAKAYELGLATRLPQPKDLVKFAESCMYTPAYRSYR
K0.5 [2]: 5.1 ± 0.5 mM
kcat [2]: 202.4 ± 6.9 s⁻¹
